Sequences and labels used below:
B1: 14B5 sdAb-Fc (Fc fusion, not shown: a dimerising Fc or GST)
chain: QVQLVQSGGGLVQAGDSLTLSCAVSERPFGTYAMGWFRQAPGRERDLVAAVSRNGGASQYGDSVKGRFSISRDNIKNTMYLQMNSLKPEDTAVYYCAARSAAYSRSSEVYTGKDEYYYWGQGTQVTVKP
notes: Camelid derived sdAb tested as sdAb-Fc; also called L14B5
B2: hz14B5v15 sdAb-Fc (Fc fusion)
chain: EVQLVESGGGEVQPGGSLRLSCAASERPFGTYAMGWFRQAPGKERDLVAAVSRNAGASYYAESVKGRFTISRDNAKNTMYLQMSSLRAEDTAVYYCAARSAAYSRSSEVYTGKDEYYYWGQGTLVTVKP
notes: Humanized variant of 14B5, linked to a human Fc; not shown: human Fc
B3: hz14B5v16 sdAb-Fc (Fc fusion)
chain: B2 chain with Y59Q, A61G, S63F
notes: as for B2
B4: 4D3 sdAb-Fc (Fc fusion, not shown: a dimerising Fc or GST)
chain: QVQLQESGGGLVQAGGSLRLSCAASRRPFSSKTMAWFRQTPGKEREFVAAVRWIGGATRYTDSVKGRFSISKDNAINTVYLQTNSLKSEDTAVYYCAAGQTWGTKFTDYSDWGQGTLVTVKP
notes: Camelid derived sdAb tested as sdAb-Fc
B5: 16G10 sdAb-Fc (Fc fusion, not shown: a dimerising Fc or GST)
chain: QVQLLQSGGGLVQAGGSLILSCAVSGRPFSSSAMGWFRQAPGKERETVAAVSRNGGSSYYADFVKGRFTISRDNDKNTVYLQMNSLKPEDTAVYYCAARSAAYSRSSETYTEKHDYTYWGQGTQVTVKP
notes: Camelid derived sdAb tested as sdAb-Fc; also called L16G10
B6: 14F4 sdAb-Fc (Fc fusion, not shown: a dimerising Fc or GST)
chain: QVQLQESGGGLMQAGDSLRLSCVVSGVTWNSYTMAWFRQAPGKEREFVAAIRWTVDTTYYADFVKGRFTISRDYAKKTMYLQMNNLKPEDAAVYYCAVGRKWPKADDYWGQGTLVTVKP
notes: as for B4
B7: 7E1 sdAb-Fc (Fc fusion, not shown: a dimerising Fc or GST)
chain: QVQLVQSGGGLVQAGASLRLSCVASGRTRSLRTMAWFRQAPGKERIFVAAISWRSDSTYYADSVKGRFTISRDNAKNTAYLQMNTLKPEDTAVYYCAAGGGWLATTPDEYTYWGQGTLVTVKP
notes: as for B4
B8: hz16G10v7 sdAb-Fc (Fc fusion)
chain: EVQLVESGGGEVQPGGSLRLSCAASGRPFSSSAMGWFRQAPGKERETVAAVSRNTGSSYYAESVKGRFTISRDNAKNTVYLQMSSLRAEDTAVYYCAARSAAYSRSSETYTEKHDYTYWGQGTLVTVKP
notes: Humanized variant of 16G10, linked to a human Fc; not shown: human Fc
B9: hz16G10v10 sdAb-Fc (Fc fusion)
chain: B8 chain with T55A, E62D, S63F
notes: as for B8
B10: hz14B5v2 sdAb-Fc (Fc fusion)
chain: B2 chain with A55G, Y59Q, M79L
notes: as for B2
B11: hz14B5v18 sdAb-Fc (Fc fusion)
chain: B2 chain with G30S, T31S, M79V
notes: as for B2
B12: hz14B5v19 sdAb-Fc (Fc fusion)
chain: B2 chain with E26G, M79V
notes: as for B2
B13: hz14B5v20 sdAb-Fc (Fc fusion)
chain: B2 chain with E26G, G30S, T31S, M79V
notes: as for B2
B14: hz12E9v5 sdAb-Fc (Fc fusion)
chain: EVQLVESGGGEVQPGGSLRLSCAASRRPFSSKTMAWFRQAPGKEREFVAAVRWIGGATRYTESVKGRFTISRDNAKNTLYLQMSSLRAEDTAVYYCAAGQAWGTKFTDYSDWGQGTLVTVKP
notes: Humanized variant of 12E9, linked to a human Fc; not shown: human Fc
B15: hz12E9v7 sdAb-Fc (Fc fusion)
chain: B14 chain with E62D, T69S, R72K, L79V
notes: as for B14
B16: hz12E9v8 sdAb-Fc (Fc fusion)
chain: B14 chain with T61A, K76I, L79V, S84N, R87K, A88S
notes: as for B14

Changes are numbered by the printed parent chain.

In the first assay the target is T1, human 5T4 (trophoblast glycoprotein), endogenous on the cell surface (human, UniProt Q13641 32-420).
T1 construct: also called TPBG; 5T4 oncofetal antigen
T1 sequence: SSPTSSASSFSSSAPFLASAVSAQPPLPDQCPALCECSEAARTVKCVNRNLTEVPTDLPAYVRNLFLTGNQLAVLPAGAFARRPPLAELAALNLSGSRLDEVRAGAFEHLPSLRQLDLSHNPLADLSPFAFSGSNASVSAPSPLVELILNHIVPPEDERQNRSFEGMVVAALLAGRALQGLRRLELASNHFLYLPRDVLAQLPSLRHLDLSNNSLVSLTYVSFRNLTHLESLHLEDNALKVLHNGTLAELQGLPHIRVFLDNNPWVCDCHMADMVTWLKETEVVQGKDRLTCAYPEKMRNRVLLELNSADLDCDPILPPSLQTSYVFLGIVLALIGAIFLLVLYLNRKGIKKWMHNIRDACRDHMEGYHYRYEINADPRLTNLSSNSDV
Nature of the assay: flow cytometry (FL4H median), sdAb-Fc titrated on 5T4-positive T47D cells. Here is the method: (§1) Specificity and relative affinity were assessed for purified sdAb-Fcs on 5T4-expressing cells. Binding of 5T4-sdAb-Fc fusion proteins was assessed by flow cytometry using 5T4-expressing cells. A titration series of the fusion protein was incubated with the 5T4-expressing cell lines (approximately 2.5×10⁴ to 5×10⁴ cells/well) for 30 minutes at 4 degrees Celsius in FACS Buffer (PBS 1% BSA, 0.1% NaN₃ pH 7.4) in 96 well plates. Following three wash steps in FACS buffer, an APC-conjugated anti-human Fcγ specific secondary antibody (Jackson ImmunoResearch) was added and incubated for 30 minutes at 4 degrees Celsius. Following three additional wash steps in FACS buffer bound antibody was detected via flow cytometry (IQue Intellicyte).
(§2) Humanized variant of the 5T4 sdAbs were tested for their ability to bind 5T4 expressing cells substantially as described in Example 2, and binding was compared to the parental sdAb. 5T4 expressing T47D cells were used in these studies. Results are shown in FIGS. 2A-2F, which confirm binding of the humanized variants. In some cases, binding was increased compared to the parental sdAb.
In general terms: A flow cytometer gives signals particle by particle.
Turning to B1, the EC50 (read off the curve) (as a rule, the concentration needed to bring the measured effect to its halfway point) is roughly 800 pM. The same measure, in the same setting: for B2 the value was roughly 2000 pM; for B3, roughly 2000 pM.

For the next assay, the target named is T1, human 5T4 (trophoblast glycoprotein), …. Put plainly: flow cytometry (FL4), sdAb-Fc titrated on HEK-293 freestyle (293FS) cells endogenously expressing 5T4. The method, then:
FIGS. 1A-B depict the ability of various single domain antibodies targeting 5T4 to bind cell surface 5T4. Binding was assessed by flow cytometry on HEK-293 freestyle cells endogenously expressing 5T4.
as §1
With B1, the “EC50 (read off the curve)” value was roughly 500 pM.

Turning to B4, the “EC50 (read off the curve)” value was roughly 200 pM.

Turning to B5, the “EC50 (read off the curve)” value is roughly 1000 pM. B6: the “EC50 (read off the curve)” value was roughly 1000 pM. The same measure, in the same setting: the figure for B7 is roughly 200 pM.

A further assay has the same target. Put plainly: flow cytometry (FL4H median), sdAb-Fc titrated on 5T4-positive T47D cells. The source holds these as a separate data set. The method, then: as §1, §2
For the molecule B1, the “EC50 (read off the curve)” value was roughly 400 pM. On the same count and under the same terms, the figure for B5 is roughly 900 pM.

The target is the same in a further assay. Nature of the assay: flow cytometry, sdAb-Fc on 5T4 expressing T47D cells.
Regarding B8, the binding result was “binds”. On to B9, for which the binding result is on record as “binds”.

In the case of B10, the binding result is listed as “binds”.

As for B11, the binding result is “binds”. As for B12, the binding result is “binds”. Same read-out and setting: for B13 the value was “binds”.

Another assay has the same target. Nature of the assay: flow cytometry (FL4H median), sdAb-Fc titrated on 5T4-positive T47D cells. The source holds these as a separate data set. The method, then: as §1, §2
In the case of B14, the “EC50 (read off the curve)” value is roughly 100 pM. Same read-out and setting: for B15 the value was roughly 100 pM; for B16, roughly 100 pM.

The values are drawn from patent US20210340273A1 (INHLBRX, published 2021).
